Measured values as given in article PMC4873975 (2016).
Residue numbers refer to the chain shown, from its start. Numbers in names are those of the source.

Columns and labels:
[1] = target: T1, FcɛRIα (recombinant, soluble) (human, UniProt P12319 26-205); test: SPR; insect-derived IgE-Fc3-4
T1 chain: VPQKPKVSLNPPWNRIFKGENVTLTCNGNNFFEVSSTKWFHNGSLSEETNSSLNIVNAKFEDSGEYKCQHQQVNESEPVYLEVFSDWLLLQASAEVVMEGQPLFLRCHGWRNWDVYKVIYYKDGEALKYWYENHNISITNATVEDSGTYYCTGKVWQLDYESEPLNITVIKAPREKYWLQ

[2] = target: T1, FcɛRIα (recombinant, soluble); test: SPR; insect-derived IgE-Fc3-4
[3] = target: T1, FcɛRIα (recombinant, soluble); test: SPR; mammalian-derived IgE-Fc3-4
[4] = target: T1, FcɛRIα (recombinant, soluble); test: SPR; mammalian-derived IgE-Fc3-4
[5] = target: T1, FcɛRIα (recombinant, soluble); test: SPR; mammalian-derived
[6] = target: T1, FcɛRIα (recombinant, soluble); test: SPR; mammalian-derived

B1: IgE-Fc3–4 (wild type) (domain or fragment)
chain: CADSNPRGVSAYLSRPSPFDLFIRKSPTITCLVVDLAPSKGTVNLTWSRASGKPVNHSTRKEEKQRNGTLTVTSTLPVGTRDWIEGETYQCRVTHPHLPRALMRSTTKTSGPRAAPEVYAFATPEWPGSRDKRTLACLIQNFMPEDISVQWLHNEVQLPDARHSTTQPRKTKGSGFFVFSRLEVTRAEWEQKDEFICRAVHEAASPSQTVQRAVSVNPGK
With B1 as the binder, how does the koff [1] read?
Its koff is 0.000946 s⁻¹.

And the Kd [2]?
Its Kd is 0.66 nM.

And the koff [3]?
Its koff is 0.00102 s⁻¹.

What about the Kd [4] of the same binder?
Its Kd is 0.933 nM.

B2: IgE-R419N-Fc3–4 (domain or fragment)
chain: B1 chain with R92N
modifications: additional N-linked glycan at the site made by R419N (NVT)
With B2 as the binder, how does the koff [5] read?
Its koff is 0.000773 s⁻¹.

What about the Kd [6] of the same binder?
Its Kd is 2.26 nM.
